The target in assay [1] is T1, human Nectin-4 extracellular antigen hNectin-4-His (human, UniProt Q96NY8 32-349).
T1 construct: C-terminal 8xHis tag included
T1 sequence: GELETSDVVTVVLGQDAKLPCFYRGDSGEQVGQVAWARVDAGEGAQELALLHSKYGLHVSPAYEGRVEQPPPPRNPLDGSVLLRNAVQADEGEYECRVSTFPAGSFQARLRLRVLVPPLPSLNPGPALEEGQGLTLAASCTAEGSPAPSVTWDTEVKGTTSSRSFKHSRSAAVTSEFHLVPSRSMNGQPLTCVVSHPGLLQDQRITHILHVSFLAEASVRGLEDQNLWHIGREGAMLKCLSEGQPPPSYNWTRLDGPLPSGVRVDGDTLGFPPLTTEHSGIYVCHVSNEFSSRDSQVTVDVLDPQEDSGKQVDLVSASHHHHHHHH
The assay can be described thus: SPR, antibody on Protein A chip, 1:1 fit. An excerpt: In this study, the affinity of the antibodies for the human Nectin-4 extracellular antigen was detected by surface plasmon resonance (SPR) technique (BIAcore: GE Healthcare, T200).

Assay [2] concerns the target T2, human Nectin-4, full length on cells (human, UniProt Q96NY8 32-510).
T2 construct: whole, on cells; T-47D cells positive for Nectin-4 expression; also called Nectin-4 on T-47D cells; CHO-Nectin-4
T2 sequence (looked up): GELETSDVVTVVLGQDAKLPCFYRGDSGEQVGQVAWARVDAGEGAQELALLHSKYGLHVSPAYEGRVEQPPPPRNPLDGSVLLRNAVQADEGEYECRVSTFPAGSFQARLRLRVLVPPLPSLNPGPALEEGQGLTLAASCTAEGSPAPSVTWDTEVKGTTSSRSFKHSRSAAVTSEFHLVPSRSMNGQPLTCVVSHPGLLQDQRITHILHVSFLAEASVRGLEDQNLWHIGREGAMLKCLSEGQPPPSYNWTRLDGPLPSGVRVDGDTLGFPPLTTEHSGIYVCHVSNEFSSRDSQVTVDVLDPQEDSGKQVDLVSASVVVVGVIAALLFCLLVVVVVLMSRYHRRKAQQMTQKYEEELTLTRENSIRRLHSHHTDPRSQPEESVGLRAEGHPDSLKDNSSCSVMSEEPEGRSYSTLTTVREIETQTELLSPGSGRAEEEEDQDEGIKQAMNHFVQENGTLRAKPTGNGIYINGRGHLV
The assay can be described thus: flow cytometry, T-47D cells, antibody bound on ice, 0 h at 37 C. Here is the method: In this assay, the relative amount of antibodies remaining on the cell surface after co-incubation at 37° C. for a certain period of time was detected by FACS to reflect the endocytosis efficiency. The procedures are briefly described as follows: T-47D cells (human ductal breast cancer cells, derived from the Cell Bank of Chinese Academy of Sciences, Cat.No. TCHu 87); the antibodies of interest were adjusted to 10 µg/mL and co-incubated with the cells on ice for 1 h; the cells were washed 3 times with pre-cooled PBS, and then placed at 37° C. and incubated for 0 h, 2 h and 4 h; 0.2% N₃Na was added to stop the endocytosis reaction; the cells were washed with PBS thrice, followed by the addition of the PE-labeled anti-human Fc secondary antibody (Invitrogen 12-4998-82); the cells were incubated at 4° C. for 30 min; the red fluorescence signal was detected on a flow cytometer.
(A flow cytometer gives signals particle by particle.)

The target in assay [3] is T1, human Nectin-4 extracellular antigen …. The assay can be described thus: ELISA, coated hNectin-4-His. An excerpt: (§1) The binding activity of the antibodies was detected by ELISA.
A general note: In an ELISA, binding on a coated surface is turned into a signal by an enzyme label.

For assay [4] the target is unchanged. The assay can be described thus: ELISA, coated hNectin-4-His.
From the text: as §1
This is another data set of the same source.

Changes are numbered by the printed parent chain. Where two headings read alike, the source gives them in different places.

For orientation: Kd means the concentration at which binding is half-saturated. Usually koff stands for the rate constant with which the complex falls apart. The low end stands for a long-lived complex, the high end for a short-lived complex. The kon is the rate constant with which the complex forms. Broadly, the EC50 is the concentration needed to bring the measured effect to its halfway point. A high value points to lower potency in that assay.

B1: antibody 10F4-1 (antibody, human IgG1, kappa, V domains shown)
VH: EVQLVESGGGLVQPGGSLRLSCAASGDSFTNYWMSWVRQAPGKGLEWVSGISQGGSYAYYADSVKGRFTISRDNSKNTLYLQMNSLRAEDTAVYYCAREYSDVVDYVSVRTPLDYWGQGTLVTVSS
VL: DIQMTQSPSSLSASVGDRVTITCRASQGISSYLAWYQQKPGKAPKLLIYAASSLQSGVPSRFSGSGSGTDFTLTISSLQPEDFATYYCQQHYTTPPTFGQGTKVEIKR
With B1, in assay [1], the Kd worked out at 0.545 nM, the koff stood at 0.000226 s⁻¹ and the kon is 415000 M⁻¹ s⁻¹. Further, the “MFI (mean fluorescence intensity) 0 h” value in assay [2] amounted to 58600 MFI.

B2: antibody 1G8-2B3 (antibody, human IgG1, kappa, V domains shown)
VH: EVQLVESGGGLVQPGGSLRLSCAASGYNFTTSAMSWVRQAPGKGLEWVSRIYQDSSTTDYADSVKGRFTISRDNSKNTLYLQMNSLRAEDTAVYYCARQTEDRSYGYDLDYWGQGTLVTVSS
VL: B1 VL
B2 gave an EC50 in assay [3] of 0.005 µg/mL. In assay [1], this molecule displayed a Kd of 1.98 nM, a koff of 0.00147 s⁻¹ and a kon of 742000 M⁻¹ s⁻¹.

B3: antibody 1F3-1H3 (antibody, human IgG1, kappa, V domains shown)
VH: EVQLVESGGGLVQPGGSLRLSCAASGFNFYNYGMSWVRQAPGKGLEWVSGIKPHSDVAHYADSVKGRFTISRDNSKNTLYLQMNSLRAEDTAVYYCARAELLAFDVYTASDYWGQGTLVTVSS
VL: B1 VL
For B3, in assay [3], the EC50 came out at 0.008 µg/mL. For the same molecule, in assay [1], binding was characterised by a dissociation constant (Kd) of 0.62 nM, the koff was determined as 0.00105 s⁻¹ and the kon is 1.69e+06 M⁻¹ s⁻¹.

B4: antibody 10F4-2C12 (antibody, human IgG1, kappa, V domains shown)
VH: EVQLVESGGGLVQPGGSLRLSCAASGYNFGDYSMSWVRQAPGKGLEWVSVIDTTSAYTRYADSVKGRFTISRDNSKNTLYLQMNSLRAEDTAVYYCAREYSDVVDYVSVRTPLDYWGQGTLVTVSS
VL: B1 VL
Take B4: the midpoint of the response in assay [4], the EC50, lay at 0.06 µg/mL. In assay [1], this molecule returned a Kd of 0.533 nM, an off-rate constant (koff) of 0.000304 s⁻¹ and a kon of 570000 M⁻¹ s⁻¹.

B5: antibody 10F4-1A1 (antibody, human IgG1, kappa, V domains shown)
VH: B1 VH with D27F, T30D, W33D, G50S, S52K, Q53P, G55S, S56A, A58K, Y59F
VL: B1 VL
In the case of B5, it took 0.051 µg/mL to reach a half-maximal effect in assay [4] (EC50). In assay [1], this molecule yielded a Kd of 0.432 nM, a koff of 0.000186 s⁻¹ and a kon of 430000 M⁻¹ s⁻¹.

B6: antibody 10F4-1H6 (antibody, human IgG1, kappa, V domains shown)
VH: B4 VH with Y27F, G30Y, S33D, V50G, D52K, T54H, A56G, Y57G, T58N, R59G
VL: B1 VL
In turn, B6 yielded an EC50 in assay [4] of 0.063 µg/mL. In assay [1], this molecule registered a Kd of 0.505 nM, a koff of 0.000151 s⁻¹ and a kon of 299000 M⁻¹ s⁻¹.

B7: antibody 10F4-5 (antibody, human IgG1, kappa, V domains shown)
VH: EVQLVESGGGLVQPGGSLRLSCAASGFIFDGYDMSWVRQAPGKGLEWVSVIKDHGGYKFYADSVKGRFTISRDNSKNTLYLQMNSLRAEDTAVYYCAREYSDVVDYVSVRTPLDYWGQGTLVTVSS
VL: B1 VL
In assay [1], B7 registered a Kd of 0.399 nM, a koff of 0.000137 s⁻¹ and a kon of 343000 M⁻¹ s⁻¹. The “MFI (mean fluorescence intensity) 0 h” value in assay [2] came to 63400 MFI.

B8: antibody 10F4-1H11 (antibody, human IgG1, kappa, V domains shown)
VH: EVQLVESGGGLVQPGGSLRLSCAASGYTFTGFWMSWVRQAPGKGLEWVSSISPDSGTKHYADSVKGRFTISRDNSKNTLYLQMNSLRAEDTAVYYCAREYSDVVDYVSVRTPLDYWGQGTLVTVSS
VL: B1 VL
For the molecule B8, in assay [4], the EC50 worked out at 0.059 µg/mL. Also, in assay [1], the Kd worked out at 0.605 nM, the koff is 0.000212 s⁻¹ and the kon was determined as 350000 M⁻¹ s⁻¹.

B9: antibody 10F4-3 (antibody, human IgG1, kappa, V domains shown)
VH: B4 VH with Y27F, N28S, Y32F, S33A, T53G, T54H, S55T, T58N, R59S
VL: B1 VL
In assay [1], B9 showed a Kd of 0.352 nM, a koff of 0.000122 s⁻¹ and a kon of 346000 M⁻¹ s⁻¹. Also, in assay [2], the “MFI (mean fluorescence intensity) 0 h” value amounted to 61200 MFI.

B10: antibody 10F4-2F11 (antibody, human IgG1, kappa, V domains shown)
VH: B1 VH with D27Y, S28N, N31S, W33D, S52K, Q53T, S56G, Y57S, Y59R
VL: B1 VL
On to B10, for which the midpoint of the response in assay [4], the EC50, lay at 0.078 µg/mL. In assay [1], the Kd was 0.396 nM, the koff turned out to be 0.000161 s⁻¹ and the kon was 406000 M⁻¹ s⁻¹.

B11: antibody 10F4-1F8 (antibody, human IgG1, kappa, V domains shown)
VH: B8 VH with G31D, F32Y, W33D, S52I, P53T, S55G, T57G, K58A, H59F
VL: B1 VL
In assay [4], B11 gave an EC50 of 0.054 µg/mL. In assay [1], this molecule gave a Kd of 0.558 nM, a koff of 0.000237 s⁻¹ and a kon of 424000 M⁻¹ s⁻¹.

B12: antibody 10F4-1G7 (antibody, human IgG1, kappa, V domains shown)
VH: B7 VH with F27Y, I28N, D30G, G31D, V50S, K52I, D53G, G56D, Y57T
VL: B1 VL
As to B12, in assay [4], the response was half-maximal at 0.068 µg/mL (EC50). Further, in assay [1], the affinity, expressed as Kd, was 0.374 nM; the koff was determined as 0.000145 s⁻¹; the kon was determined as 389000 M⁻¹ s⁻¹.

B13: antibody 10F4-1C10 (antibody, human IgG1, kappa, V domains shown)
VH: B4 VH with D31S, S33D, V50G, D52K, T54Y, S55G, A56G, Y57N, R59H
VL: B1 VL
For the molecule B13, in assay [4], a half-maximal response (EC50) required 0.058 µg/mL. In assay [1], this molecule gave a Kd of 0.435 nM, a koff of 0.000116 s⁻¹ and a kon of 265000 M⁻¹ s⁻¹.

B14: antibody 10F4-1F1 (antibody, human IgG1, kappa, V domains shown)
VH: B1 VH with D27F, T30S, G50A, Q53P, G55D, S56G, Y57T, A58I, Y59F
VL: B1 VL
With B14, the EC50 in assay [4] was 0.057 µg/mL.

B15: antibody 1F3-2B9 (antibody, human IgG1, kappa, V domains shown)
VH: B3 VH with Y30D, N31S, G33A, S55T, V57D, A58I, H59Y
VL: B1 VL
In assay [3], B15 registered an EC50 of 0.009 µg/mL. In assay [1], this molecule yielded a Kd of 0.552 nM, a koff of 0.00101 s⁻¹ and a kon of 1.82e+06 M⁻¹ s⁻¹.

B16: antibody 10F4-1E1 (antibody, human IgG1, kappa, V domains shown)
VH: EVQLVESGGGLVQPGGSLRLSCAASGDIFGNYWMSWVRQAPGKGLEWVSSIDASSGNRFYADSVKGRFTISRDNSKNTLYLQMNSLRAEDTAVYYCAREYSDVVDYVSVRTPLDYWGQGTLVTVSS
VL: B1 VL
In assay [4], B16 registered an EC50 of 0.067 µg/mL.

B17: antibody 10F4-2C6 (antibody, human IgG1, kappa, V domains shown)
VH: B7 VH with I28N, D30G, Y32F, V50G, D53Q, H54Y, G55K, K58T, F59S
VL: B1 VL
The molecule B17 showed an EC50 in assay [4] of 0.09 µg/mL. In assay [1], this molecule gave a Kd of 0.285 nM, a koff of 8.36e-05 s⁻¹ and a kon of 294000 M⁻¹ s⁻¹.

B18: antibody 10F4-1C3 (antibody, human IgG1, kappa, V domains shown)
VH: B8 VH with T28S, T30S, G31D, F32Y, S52K, P53Q, D54T, S55G, T57V
VL: B1 VL
In assay [4], B18 registered an EC50 of 0.053 µg/mL. Besides, in assay [1], the Kd was found to be 0.589 nM, the koff stood at 0.000218 s⁻¹ and the kon amounted to 370000 M⁻¹ s⁻¹.

These data come from patent US20260144882A1 (BIO THERA SOLUTIONS, published 2026).
